Measurements published in patent US20220072144A1 (published 2022).

Columns and labels:
[1] = target: T1, Flag-HER3 (E928G) (human, UniProt P21860 1-1342); assay: flow cytometry on HER3-stably expressing MDA-MB-231 cells without HER2 overexpression, 0.1 to 100 nM
T1 construct: The entry already carries the mutation; Stably expressed in MDA-MB-231 cells, with or without HER2 overexpression; also called mutant-type HER3 (E928G)
Method: (§1) Wild-type and various kinds of mutant-type HER3-introduced MDA-MB-231 cells were cultured with RPMI1640 medium (available from Thermo Fisher […] K.K.) containing 10% FBS (available from Hyclone Laboratories, Inc). The cells were separated from the culture plate with TrypLE® Express Enzyme (available from Thermo Fisher […] K.K.), to measure the number of living cells by trypan blue treatment. The same number of living cells were added to a 96-well U-bottom plate, then the cells were precipitated by centrifugation, and the medium was replaced with Stain Buffer (available from Becton, Dickinson and Company). […] The cells were allowed to react on ice for 60 minutes and then washed with Stain Buffer. Further, 100 μL of Stain Buffer or a secondary antibody (Goat anti-Human IgG (H+L) Cross-Adsorbed Secondary Antibody, Alexa Fluor647, Thermo Fisher […] K.K., #A-21445) diluted to 10 μg/mL was added thereto, and the cells were suspended therein. After the cells were allowed to react in the dark on ice for 60 minutes and then washed with Stain Buffer. After the cells were suspended in 100 μL of Stain Buffer, an equal amount of 4% paraformaldehyde phosphate buffer (Wako Pure Chemical Industries, Ltd.) was added thereto, and the mixture was reacted in the dark on ice for 20 minutes. After washing with a Stain Buffer, fluorescence signals were measured using Attune NxT Flow Cytometer (available from Thermo Fisher […] K.K.), and the measurement results were analyzed using FlowJo software (Version 10.5.0, available from Becton, Dickinson and Company).

[2] = target: T2, Flag-HER3 (S846I) (human, UniProt P21860 1-1342); assay: as above
T2 construct: The entry already carries the mutation; Stably expressed in MDA-MB-231 cells, with or without HER2 overexpression; also called mutant-type HER3 (S846I)
Method: as §1

[3] = target: T3, Flag-HER3 (WT) (human, UniProt P21860 1-1342); assay: as above
T3 construct: Flag-tagged full-length HER3 stably expressed in MDA-MB-231 cells, with or without HER2 overexpression; also called wild-type HER3
Method: as §1

[4] = target: T4, Flag-HER3 (V104L) (human, UniProt P21860 1-1342); assay: flow cytometry on HER2-overexpressing and HER3-stably expressing MDA-MB-231 cells, 0.1 to 100 nM
T4 construct: The entry already carries the mutation; Stably expressed in MDA-MB-231 cells, with or without HER2 overexpression; also called mutant-type HER3 (V104L)
Method: as §1

[5] = target: T5, Flag-HER3 (P262H) (human, UniProt P21860 1-1342); assay: as above
T5 construct: The entry already carries the mutation; Stably expressed in MDA-MB-231 cells, with or without HER2 overexpression; also called mutant-type HER3 (P262H)
Method: as §1

[6] = target: T6, Flag-HER3 (G284R) (human, UniProt P21860 1-1342); assay: as above
T6 construct: The entry already carries the mutation; Stably expressed in MDA-MB-231 cells, with or without HER2 overexpression; also called mutant-type HER3 (G284R)
Method: as §1

[7] = target: T7, Flag-HER3 (G325R) (human, UniProt P21860 1-1342); assay: as above
T7 construct: The entry already carries the mutation; Stably expressed in MDA-MB-231 cells, with or without HER2 overexpression; also called mutant-type HER3 (G325R)
Method: as §1

[8] = target: T8, Flag-HER3 (V104M) (human, UniProt P21860 1-1342); assay: as above
T8 construct: The entry already carries the mutation; Stably expressed in MDA-MB-231 cells, with or without HER2 overexpression; also called mutant-type HER3 (V104M)
Method: as §1

[9] = target: T9, Flag-HER3 (A232V) (human, UniProt P21860 1-1342); assay: as above
T9 construct: The entry already carries the mutation; Stably expressed in MDA-MB-231 cells, with or without HER2 overexpression; also called mutant-type HER3 (A232V)
Method: as §1

[10] = target: T10, Flag-HER3 (D297Y) (human, UniProt P21860 1-1342); assay: as above
T10 construct: The entry already carries the mutation; Stably expressed in MDA-MB-231 cells, with or without HER2 overexpression; also called mutant-type HER3 (D297Y)
Method: as §1

[11] = target: T11, Flag-HER3 (T355I) (human, UniProt P21860 1-1342); assay: as above
T11 construct: The entry already carries the mutation; Stably expressed in MDA-MB-231 cells, with or without HER2 overexpression; also called mutant-type HER3 (T355I)
Method: as §1

[12] = target: T12, Flag-HER3 (Q809R) (human, UniProt P21860 1-1342); assay: flow cytometry on HER2-overexpressing and HER3-stably expressing MDA-MB-231 cells, same method as Example 3
T12 construct: The entry already carries the mutation; Stably expressed in HER2-overexpressing MDA-MB-231 cells; also called mutant-type HER3 (Q809R)
Method: as §1, with “After the cells were suspended in 100 μL of Stain Buffer, an equal amount of 4% paraformaldehyde phosphate buffer (Wako Pure Chemical Industries, Ltd.) was added thereto, and the mixture was reacted in the dark on ice for 20 minutes.” left out

- binding result [1]: binds
- binding result [2]: binds
- binding result [3]: binds
- binding result [4]: binds
- binding result [5]: binds
- binding result [6]: binds
- binding result [7]: binds
- binding result [8]: binds
- binding result [9]: binds
- binding result [10]: binds
- binding result [11]: binds
- binding result [12]: binds
B1: HER3-ADC (1) (antibody, human IgG1, kappa, V domains shown)
VH: QVQLQQWGAGLLKPSETLSLTCAVYGGSFSGYYWSWIRQPPGKGLEWIGEINHSGSTNYNPSLKSRVTISVETSKNQFSLKLSSVTAADTAVYYCARDKWTWYFDLWGRGTLVTVSS
VL: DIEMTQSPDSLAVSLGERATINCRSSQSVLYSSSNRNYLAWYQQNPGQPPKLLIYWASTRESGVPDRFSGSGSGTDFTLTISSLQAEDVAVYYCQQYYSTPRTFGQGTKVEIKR
modifications: drug-linker (exatecan derivative) conjugated via a thioether bond to cysteine thiols formed at interchain disulfide sites; drug-linker (exatecan derivative) conjugated via a thioether bond to cysteine thiols formed at interchain disulfide sites; average number of conjugated drug molecules per antibody molecule in the range of 7 to 8
notes: also called anti-HER3 antibody-drug conjugate; conjugate of HER3-Ab (1)
